Reference: patent US20230322927A1

Key:
[1] = target: cynomolgus CD28 on cynomolgus T cells (cynomolgus) (UniProt Q0PDN3); assay: flow cytometry on cynomolgus CD2+/CD4+ T cells, Alexa647 read-out
[2] = target: human CD28 on cells (human) (UniProt P10747); assay: flow cytometry on human CD2+/CD4+ T cells, Alexa647 read-out
[3] = target: cynomolgus CD28 on cynomolgus T cells (cynomolgus) (UniProt Q0PDN3); assay: flow cytometry on cynomolgus CD2+/CD8+ T cells, Alexa647 read-out
[4] = target: human CD28 on cells (human) (UniProt P10747); assay: flow cytometry on human CD2+/CD8+ T cells, Alexa647 read-out

Measured: EC50 (read off the curve)

REGN5705 (antibody)
0.05 nM: all assays above
